Read-outs that look alike come from different tables or passages of the source.
Key:
P12 WT [1] = target: T1, P12 WT (Enterobacteria phage PRD1, UniProt P17637 1-160); experiment: EMSA
T1 sequence: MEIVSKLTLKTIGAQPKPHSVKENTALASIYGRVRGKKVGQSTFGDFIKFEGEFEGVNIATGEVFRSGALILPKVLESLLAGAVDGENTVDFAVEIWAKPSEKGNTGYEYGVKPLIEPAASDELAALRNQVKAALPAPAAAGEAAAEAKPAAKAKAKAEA

P12 F44A+K10A (M2) = target: T2, P12 F44A+K10A (M2) (Enterobacteria phage PRD1, UniProt P17637 1-160, K10A;F44A); experiment: EMSA
T2 sequence: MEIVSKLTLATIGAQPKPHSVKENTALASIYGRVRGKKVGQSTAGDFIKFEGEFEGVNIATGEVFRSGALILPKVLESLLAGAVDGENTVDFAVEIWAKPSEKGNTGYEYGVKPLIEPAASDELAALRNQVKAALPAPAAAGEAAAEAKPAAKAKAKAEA

P12(1-122) (T3) = target: T3, P12(1-122) (T3) (Enterobacteria phage PRD1, UniProt P17637 1-122, del123-160); experiment: EMSA
T3 sequence: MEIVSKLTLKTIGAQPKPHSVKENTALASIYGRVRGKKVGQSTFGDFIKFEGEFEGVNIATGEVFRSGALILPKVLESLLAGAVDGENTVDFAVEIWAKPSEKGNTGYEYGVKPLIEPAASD

P12 WT [2] = target: T1, P12 WT; experiment: EMSA; remark: listed apart in the source
cryo-EM structure = target: the molecule itself; experiment: cryo-EM structure
P12 WT [3] = target: T1, P12 WT; experiment: EMSA; remark: listed apart in the source

AGAGACAACTGGCCGTCGTTCTATTGTACTCACTGTGATC (ssDNA) [ssDNA (non-repetitive)40]
binding result (P12 WT [1]): binds

B1: ssDNA (non-repetitive)80 (ssDNA)
DNA: AGAGACAACTGGCCGTCGTTCTATTGTACTCACTGTGATCAGAGACAACTGGCCGTCGTTCTATTGTACTCACTGTGATC
binding result (P12 F44A+K10A (M2)): no binding
binding result (P12(1-122) (T3)): no binding
Kd (P12 WT [2]): 0.35 µM

B2: P12, single-stranded DNA-binding protein from bacteriophage PRD1 (natural protein, UniProt P17637 1-160, looked up)
chain: MEIVSKLTLKTIGAQPKPHSVKENTALASIYGRVRGKKVGQSTFGDFIKFEGEFEGVNIATGEVFRSGALILPKVLESLLAGAVDGENTVDFAVEIWAKPSEKGNTGYEYGVKPLIEPAASDELAALRNQVKAALPAPAAAGEAAAEAKPAAKAKAKAEA
binding result (cryo-EM structure): binds

GATCACAGTGAGTACAATAGAACGACGGCCAGTTGTCTCAATCTAACGGC (ssDNA) [ssDNA (non-repetitive)50]
binding result (P12 WT [3]): binds

GAAAAUAAAAAUAAACUGGACAAUUAAGGAUCCUGUACAAGUCGACGCGG (ssRNA) [ssRNA (non-repetitive)50]
binding result (P12 WT [3]): no binding
